In patent US20190002588A1 (NATIONAL UNIVERSITY CORPORATION CHIBA UNIVERSITY, published 2019):

T1: human Myl9-His (human, UniProt P24844 2-172, limits assumed)
T1 construct: Made in E. coli; the GST tag was cleaved with PreScission Protease
T1 sequence: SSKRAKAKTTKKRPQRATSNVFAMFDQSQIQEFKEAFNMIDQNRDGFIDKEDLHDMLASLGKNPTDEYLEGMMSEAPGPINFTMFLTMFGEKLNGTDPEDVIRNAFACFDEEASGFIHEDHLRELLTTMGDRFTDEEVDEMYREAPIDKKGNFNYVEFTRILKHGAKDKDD

T2: human Myl12a-His (human, UniProt P19105 1-171)
T2 construct: Made in E. coli; GST tag cleaved with PreScission Protease; DTT-treated monomer
T2 sequence: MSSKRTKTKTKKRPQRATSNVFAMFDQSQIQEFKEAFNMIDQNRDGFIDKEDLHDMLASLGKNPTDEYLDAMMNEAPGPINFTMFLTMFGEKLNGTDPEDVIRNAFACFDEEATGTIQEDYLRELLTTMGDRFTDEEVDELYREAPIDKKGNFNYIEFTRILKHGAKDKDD

T3: human Myl12b-His (human, UniProt O14950 1-172)
T3 construct: Made in E. coli; GST tag cleaved with PreScission Protease; DTT-treated monomer
T3 sequence: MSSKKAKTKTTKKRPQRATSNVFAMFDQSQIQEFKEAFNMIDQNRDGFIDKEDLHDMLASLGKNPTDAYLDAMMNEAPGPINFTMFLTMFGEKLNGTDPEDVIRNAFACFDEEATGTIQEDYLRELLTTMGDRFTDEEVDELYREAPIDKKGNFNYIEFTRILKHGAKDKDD

T4: mouse Myl9-His (mouse, UniProt Q9CQ19 2-172, limits assumed)
T4 construct: Made in E. coli; the GST tag was cleaved with PreScission Protease and leftover vector residues are not described
T4 sequence: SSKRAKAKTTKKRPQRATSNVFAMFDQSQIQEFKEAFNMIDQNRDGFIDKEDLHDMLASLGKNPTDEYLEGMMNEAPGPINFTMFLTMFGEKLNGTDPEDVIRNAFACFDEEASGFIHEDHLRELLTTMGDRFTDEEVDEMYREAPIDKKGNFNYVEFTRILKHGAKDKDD

T5: mouse Myl12a-His (mouse, UniProt Q3THE2 1-172 at identity 1.00), limits assumed)
T5 construct: Made in E. coli; GST tag cleaved with PreScission Protease; DTT-treated monomer
T5 chain: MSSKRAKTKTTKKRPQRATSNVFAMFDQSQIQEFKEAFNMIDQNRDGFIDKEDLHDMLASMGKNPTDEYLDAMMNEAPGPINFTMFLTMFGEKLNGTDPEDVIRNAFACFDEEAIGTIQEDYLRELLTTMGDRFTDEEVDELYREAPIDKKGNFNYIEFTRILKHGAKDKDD

T6: mouse Myl12b-His (mouse, UniProt Q3THE2 1-172, limits assumed)
T6 construct: Made in E. coli; GST tag cleaved with PreScission Protease; DTT-treated monomer
T6 sequence: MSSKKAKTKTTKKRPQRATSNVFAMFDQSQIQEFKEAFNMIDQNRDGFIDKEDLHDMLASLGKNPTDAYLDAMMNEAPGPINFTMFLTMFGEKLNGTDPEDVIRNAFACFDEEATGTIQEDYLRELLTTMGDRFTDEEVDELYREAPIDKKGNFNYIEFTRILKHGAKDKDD

T7: mouse/human Myl9 peptide-BSA (mouse and human (common sequence), added C-terminal Cys coupled to maleimide-activated BSA)
T7 construct: Synthetic peptide conjugated to bovine serum albumin
T7 peptide: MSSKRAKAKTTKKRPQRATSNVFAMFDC


How the values were obtained:
[1] = target: T1, human Myl9-His; assay: ELISA, human Myl9-His coated, anti-Flag-HRP
Method: (§1) Evaluation of binding between human Myl9, Myl12a and Myl12b and human CD69 extracellular region protein was carried out by ELISA. Human Myl3-His, human Myl9-His, human Myl12a-His and human Myl12b-His prepared in Example 5 were coated onto the wells of a 96-well plate (Nunc), respectively. After an overnight incubation at 4° C., the wells were blocked at room temperature for one hour with 1× Block Ace (DS Pharma Biomedical Co., Ltd.). After washing three times with 0.02% Tween 20/PBS, six serial dilutions by three folds of 3× Flag-human CD69 EC protein were made from a concentration of 10 μg/mL by 50 mM NaOAc (pH 5.5)/150 mM NaCl/0.02% Tween 20 and added to the wells. After incubation at room temperature for one and half hour and washing three times with 50 mM NaOAc (pH 5.5)/150 mM NaCl/0.02% Tween 20, horseradish peroxidase-labeled anti-Flag (M2) antibody (SIGMA) was added, and this was incubated at room temperature for one hour. After washing 5 times, TMBZ (3,3′,5,5′-tetramethylbenzidine) solution was added to the wells, and this was incubated for 5-20 minutes at room temperature. An equal amount of reaction quenching solution (2N H₂SO₄) was added to the wells, and absorbance at 450 nm was read with a microplate reader (Thermo Scientific).

[2] = target: T2, human Myl12a-His; assay: ELISA, human Myl12a-His coated, anti-Flag-HRP
Method: as §1

[3] = target: T3, human Myl12b-His; assay: ELISA, human Myl12b-His coated, anti-Flag-HRP
Method: as §1

[4] = target: T8, human Myl3-His (human, UniProt P08590 2-195, limits assumed); assay: ELISA, human Myl3-His coated, pH 5.5 buffer, anti-Flag-HRP
T8 construct: Made in E. coli; the GST tag was cleaved with PreScission Protease
T8 sequence (P08590 2-195 limits assumed): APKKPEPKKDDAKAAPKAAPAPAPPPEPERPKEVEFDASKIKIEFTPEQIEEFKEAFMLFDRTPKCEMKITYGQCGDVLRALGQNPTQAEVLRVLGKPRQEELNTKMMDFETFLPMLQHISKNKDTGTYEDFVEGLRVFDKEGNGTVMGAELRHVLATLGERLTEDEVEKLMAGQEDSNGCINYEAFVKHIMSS
Method: as §1

[5] = target: T8, human Myl3-His; assay: ELISA, human Myl3-His coated, anti-mouse IgG-HRP
Method: (§2) The binding ability against mouse/human Myl9 was evaluated following the steps below by ELISA. Mouse Myl3-His, mouse Myl9-His, human Myl3-His, and human Myl9-His were coated onto the wells of a 96-well plate (Nunc). After an overnight incubation at 4° C., the wells were blocked at room temperature for one hour with 1× Block Ace (DS Pharma Biomedical Co., Ltd.). After washing three times with 0.02% Tween 20/PBS, ten serial dilutions by four folds of Antibody A were made from a concentration of 10 μg/mL and added to the wells. After incubation at room temperature for one hour and washing three times, horseradish peroxidase-labeled anti-mouse IgG antibody (Jackson ImmunoResearch Laboratories) was added, and this was incubated at […] temperature for one hour. After washing 5 times, TMBZ (3,3′,5,5′-tetramethylbenzidine) solution was added to the wells, and this was incubated for 5-20 minutes at room temperature. An equal amount of reaction quenching solution (2N H₂SO₄) was added to the wells, and absorbance at 450 nm was read with a microplate reader (PerkinElmer).

[6] = target: T1, human Myl9-His; assay: ELISA, human Myl9-His coated, anti-mouse IgG-HRP
Method: as §2

[7] = target: T9, mouse Myl3-His (mouse, UniProt P09542 2-204, limits assumed); assay: ELISA, mouse Myl3-His coated, anti-mouse IgG-HRP
T9 construct: Made in E. coli; the GST tag was cleaved with PreScission Protease
T9 sequence (P09542 2-204 limits assumed): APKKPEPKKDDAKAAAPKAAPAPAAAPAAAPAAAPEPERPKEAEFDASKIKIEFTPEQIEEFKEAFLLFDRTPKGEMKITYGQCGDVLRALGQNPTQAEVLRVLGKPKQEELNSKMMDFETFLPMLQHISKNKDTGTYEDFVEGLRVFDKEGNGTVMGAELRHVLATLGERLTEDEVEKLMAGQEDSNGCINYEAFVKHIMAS
Method: as §2

[8] = target: T4, mouse Myl9-His; assay: ELISA, mouse Myl9-His coated, anti-mouse IgG-HRP
Method: as §2

[9] = target: T2, human Myl12a-His; assay: ELISA, human Myl12a-His coated, anti-mouse IgG-HRP
Method: (§3) The binding ability of Antibody A against mouse/human Myl12a and Myl12b was evaluated following the steps below by ELISA. Mouse Myl3-His, mouse Myl9-His, mouse Myl12a-His, mouse Myl12b-His, human Myl3-His, human Myl9-His, human Myl12a-His, and human Myl12b-His were coated onto the wells of a 96-well plate (Nunc). After an overnight incubation at 4° C., the wells were blocked at room temperature for one hour with 1× Block Ace (DS Pharma Biomedical Co., Ltd.). After washing three times with 0.02% Tween 20/PBS, eleven serial dilutions by four folds of Antibody A were made from a concentration of 10 μg/mL and added to the wells. After incubation at room temperature for one hour and washing three times, horseradish peroxidase-labeled anti-mouse IgG antibody (Jackson ImmunoResearch Laboratories) was added, and this was incubated at room temperature for one hour. After washing 5 times, TMBZ (3,3′,5,5′-tetramethylbenzidine) solution was added to the wells, and this was incubated for 5-20 minutes at room temperature. An equal amount of reaction quenching solution (2N H₂SO₄) was added to the wells, and absorbance at […] was read with a microplate reader (Thermo Scientific).

[10] = target: T3, human Myl12b-His; assay: ELISA, human Myl12b-His coated, anti-mouse IgG-HRP
Method: as §3

[11] = target: T5, mouse Myl12a-His; assay: ELISA, mouse Myl12a-His coated, anti-mouse IgG-HRP
Method: as §3

[12] = target: T6, mouse Myl12b-His; assay: ELISA, mouse Myl12b-His coated, anti-mouse IgG-HRP
Method: as §3

[13] = target: T7, mouse/human Myl9 peptide-BSA; assay: ELISA, mouse/human Myl9 peptide-BSA coated, hybridoma supernatant
Method: ELISA employing mouse/human Myl9 peptide-BSA was carried out according to the following steps. Mouse/human Myl9 peptide-BSA was coated onto the wells of a 96-well plate (Num). After an overnight incubation at 4° C., the wells were blocked at room temperature for one hour with 1× Block Ace (DS Pharma Biomedical Co., Ltd.). After washing three times with 0.02% Tween 20/PBS, the culture supernatant of said fused cells was added to the wells. After incubation at room temperature for one hour and washing three times, horseradish peroxidase-labeled anti-mouse IgG antibody (Jackson ImmunoResearch Laboratories) was added, and this was incubated at room temperature for one hour. After washing 5 times, TMBZ (3,3′,5,5′-tetramethylbenzidine) solution was added to the wells, and this was incubated for 5-20 minutes at room temperature. An equal amount of reaction quenching solution (2N H₂SO₄) was added to the wells, and absorbance at 450 nm was read with a microplate reader (PerkinElmer).

Row | binding result [1] | binding result [2] | binding result [3] | binding result [4] | binding result [5] | binding result [6] | binding result [7] | binding result [8] | binding result [9] | binding result [10] | binding result [11] | binding result [12] | binding result [13] | Binder
1 | binds | binds | binds | no binding (tested: 10 µg/mL) | – | – | – | – | – | – | – | – | – | 3× Flag-human CD69 EC protein (receptor, not shown: small tags and cut ends, Made in Expi293F cells and purified on Anti-Flag M2 gel; The dimerized protein was collected by Superdex200 or Superdex75; also called human CD69 extracellular region protein; extracellular region of human CD69) GQYNCPGQYTFSMPSDSHVSSCSEDWVGYQRKCYFISTVKRSWTSAQNACSEHGATLAVIDSEKDMNFLKRYAGREEHWVGLKKEPGHPWKWSNGKEFNNWFNVTGSDKCVFLKNTEVSSMECEKNLYWICNKPYK
2 | – | – | – | – | no binding (tested: 10 µg/mL) | binds | no binding (tested: 10 µg/mL) | binds | binds | binds | binds | binds | binds | mouse anti-mouse/human Myl9 monoclonal antibody (Antibody A) (antibody, V domains shown, Hybridoma antibody purified with Protein A; isotype printed as 'IgG2e, kappa'; also called mAb A; anti-mouse/human Myl9 antibody) VH: QVQLQQSGAEVVRPGASVTLSCKASGYTFTDYEMHWVKQTPVHGLEWIGAIDPETGGTAYNQKFKGKAILTADKSSNTAYMELRSLTSEDSAVYYCTDYDYDGFAYWGQGTLVTVSA VL: DVVMTQTPLSLPVSLGDQASISCRSSQSLVHSNGNTYLHWYLQKPGRSPKLLISKVSNRFSGVPDRFSGSGSGTDFTLKITRVEAEDLGVYFCSQNTHVPPLTFGAGTKLELK
